Here are results for three molecules from PMC4947014.

Residue numbers refer to the chain shown, from its start. Names and notes keep the numbering of the source.

Test [1] deals with Im7 L18AL19AL37AH40W (E. coli).
Test [2] addresses Im7 L18AL19AL37AH40W (E. coli). Briefly: stopped-flow fluorescence.
For test [3], the target named is Im7, wild type (E. coli). As to the kind of experiment: stopped-flow fluorescence.

B1: Spy, wild type (natural protein)
chain: ADTTTAAPADAKPMMHHKGKFGPHQDMMFKDLNLTDAQKQQIREIMKGQRDQMKRPPLEERRAMHDIIASDTFDKVKAEAQIAKMEEQRKANMLAHMETQNKIYNILTPEQKKQFNANFEKRLTERPAAKGKMPATAE
The molecule B1 returned a stoichiometry N in test [1] of 1. The molecule further yielded an on-rate constant (kon) in test [2] of 1.2e+08 M⁻¹ s⁻¹. For the same molecule, in test [3], the kobs of release of native Im7 (double mixing, chase after 6 ms) stood at 141 s⁻¹ and the dissociation rate constant (koff) stood at 131 s⁻¹.

B2: Spy Q100L (natural protein)
chain: B1 chain with Q100L
With B2, in test [2], the fold increase in affinity (Kd) over SpyWT stood at 150 fold and the fold lower release rate constant (koff) than SpyWT is 130 fold.

B3: Spy H96L (natural protein)
chain: B1 chain with H96L
In test [2], B3 showed a fold increase in affinity (Kd) over SpyWT of 7 fold and a fold lower release rate constant (koff) than SpyWT of 5 fold.

A word on the stoichiometry N: it is the number of molecules, sites or subunits per partner or assembly. The term kon denotes the second-order rate constant of association. The low end stands for slow association, the high end for fast association. In general, koff refers to the first-order rate constant of dissociation. Low values mean slow dissociation, high ones fast dissociation.
